# Test results from IntAct's records for PubMed 19513235.
# B1: Mitogen-activated protein kinase kinase 1 (Arabidopsis thaliana (Mouse-ear cress)), Q94A06 (parent)
# chain: MNRGSLCPNPICLPPLEQSISKFLTQSGTFKDGDLRVNKDGIQTVSLSEPGAPPPIEPLDNQLSLADLEVIKVIGKGSSGNVQLVKHKLTQQFFALKVIQLNTEESTCRAISQELRINLSSQCPYLVSCYQSFYHNGLVSIILEFMDGGSLADLLKKVGKVPENMLSAICKRVLRGLCYIHHERRIIHRDLKPSNLLINHRGEVKITDFGVSKILTSTSSLANSFVGTYPYMSPERISGSLYSNKSDIWSLGLVLLECATGKFPYTPPEHKKGWSSVYELVDAIVENPPPCAPSNLFSPEFCSFISQCVQKDPRDRKSAKELLEHKFVKMFEDSDTNLSAYFTDAGSLIPPLAN
# partner: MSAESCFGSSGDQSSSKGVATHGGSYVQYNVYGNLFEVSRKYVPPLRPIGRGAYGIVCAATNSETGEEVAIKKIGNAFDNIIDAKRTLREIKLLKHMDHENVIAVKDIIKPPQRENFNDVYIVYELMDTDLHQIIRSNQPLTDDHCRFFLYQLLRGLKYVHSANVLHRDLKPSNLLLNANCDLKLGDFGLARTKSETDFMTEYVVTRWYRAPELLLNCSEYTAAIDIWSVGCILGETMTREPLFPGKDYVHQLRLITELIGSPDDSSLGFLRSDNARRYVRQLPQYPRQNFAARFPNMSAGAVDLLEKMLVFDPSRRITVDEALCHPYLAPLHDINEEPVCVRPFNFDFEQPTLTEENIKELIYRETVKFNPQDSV
# B2: Mitogen-activated protein kinase kinase 1 (Arabidopsis thaliana (Mouse-ear cress)), Q94A06 (parent)
# chain: B1 chain
# partner: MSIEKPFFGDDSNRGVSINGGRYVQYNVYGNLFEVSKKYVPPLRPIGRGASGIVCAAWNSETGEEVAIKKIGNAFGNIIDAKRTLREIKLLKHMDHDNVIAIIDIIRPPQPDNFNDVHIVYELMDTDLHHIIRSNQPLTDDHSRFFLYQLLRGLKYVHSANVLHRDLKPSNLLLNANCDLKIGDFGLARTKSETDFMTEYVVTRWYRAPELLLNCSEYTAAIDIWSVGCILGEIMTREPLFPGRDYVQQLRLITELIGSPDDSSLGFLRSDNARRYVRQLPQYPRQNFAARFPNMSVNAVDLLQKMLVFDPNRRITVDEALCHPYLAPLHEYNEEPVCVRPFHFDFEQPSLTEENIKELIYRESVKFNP
# B3: Mitogen-activated protein kinase kinase 2 (Arabidopsis thaliana (Mouse-ear cress)), Q9S7U9 (parent)
# chain: MKKGGFSNNLKLAIPVAGEQSITKFLTQSGTFKDGDLRVNKDGVRIISQLEPEVLSPIKPADDQLSLSDLDMVKVIGKGSSGVVQLVQHKWTGQFFALKVIQLNIDEAIRKAIAQELKINQSSQCPNLVTSYQSFYDNGAISLILEYMDGGSLADFLKSVKAIPDSYLSAIFRQVLQGLIYLHHDRHIIHRDLKPSNLLINHRGEVKITDFGVSTVMTNTAGLANTFVGTYNYMSPERIVGNKYGNKSDIWSLGLVVLECATGKFPYAPPNQEETWTSVFELMEAIVDQPPPALPSGNFSPELSSFISTCLQKDPNSRSSAKELMEHPFLNKYDYSGINLASYFTDAGSPLATLGNLSGTFSV
# B4: Mitogen-activated protein kinase kinase 2 (Arabidopsis thaliana (Mouse-ear cress)), Q9S7U9 (parent)
# chain: B3 chain
# partner: B1 partner
# B5: Mitogen-activated protein kinase kinase 2 (Arabidopsis thaliana (Mouse-ear cress)), Q9S7U9 (parent)
# chain: B3 chain
# partner: B2 partner
# B6: Mitogen-activated protein kinase kinase 9 (Arabidopsis thaliana (Mouse-ear cress)), Q9FX43 (parent)
# chain: MALVRERRQLNLRLPLPPISDRRFSTSSSSATTTTVAGCNGISACDLEKLNVLGCGNGGIVYKVRHKTTSEIYALKTVNGDMDPIFTRQLMREMEILRRTDSPYVVKCHGIFEKPVVGEVSILMEYMDGGTLESLRGGVTEQKLAGFAKQILKGLSYLHALKIVHRDIKPANLLLNSKNEVKIADFGVSKILVRSLDSCNSYVGTCAYMSPERFDSESSGGSSDIYAGDIWSFGLMMLELLVGHFPLLPPGQRPDWATLMCAVCFGEPPRAPEGCSEEFRSFVECCLRKDSSKRWTAPQLLAHPFLREDL
# B7: Mitogen-activated protein kinase kinase 9 (Arabidopsis thaliana (Mouse-ear cress)), Q9FX43 (parent)
# chain: B6 chain
# partner: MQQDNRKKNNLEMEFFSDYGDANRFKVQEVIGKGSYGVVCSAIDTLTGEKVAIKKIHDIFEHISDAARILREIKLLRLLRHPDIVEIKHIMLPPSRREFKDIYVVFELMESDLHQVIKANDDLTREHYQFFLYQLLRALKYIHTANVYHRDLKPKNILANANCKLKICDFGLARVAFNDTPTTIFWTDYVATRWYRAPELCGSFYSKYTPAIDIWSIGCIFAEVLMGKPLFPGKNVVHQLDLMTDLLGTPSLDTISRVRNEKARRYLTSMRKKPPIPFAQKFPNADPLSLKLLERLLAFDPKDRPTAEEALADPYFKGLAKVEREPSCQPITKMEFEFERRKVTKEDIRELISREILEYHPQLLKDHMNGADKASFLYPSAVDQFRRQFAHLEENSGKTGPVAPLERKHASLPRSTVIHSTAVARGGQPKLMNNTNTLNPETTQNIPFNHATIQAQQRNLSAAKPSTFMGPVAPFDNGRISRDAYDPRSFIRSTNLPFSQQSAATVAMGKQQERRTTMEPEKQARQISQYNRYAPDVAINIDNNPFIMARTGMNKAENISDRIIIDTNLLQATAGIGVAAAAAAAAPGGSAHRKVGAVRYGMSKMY
# Variants of: B1
# Conditions: with mpk4_arath MPK4, Q39024
row,Variant,effect of a mutation on the interaction
1,T218E,increasing interaction
2,S224D,increasing interaction

# Variants of: B2
# Conditions: with mpk11_arath MPK11, Q9LMM5
row,Variant,effect of a mutation on the interaction
1,T218E,increasing interaction
2,S224D,increasing interaction

# Variants of: B3
# Conditions: with mpk6_arath MPK6, Q39026
# mpk6_arath MPK6, Q39026, sequence (Q39026 whole entry): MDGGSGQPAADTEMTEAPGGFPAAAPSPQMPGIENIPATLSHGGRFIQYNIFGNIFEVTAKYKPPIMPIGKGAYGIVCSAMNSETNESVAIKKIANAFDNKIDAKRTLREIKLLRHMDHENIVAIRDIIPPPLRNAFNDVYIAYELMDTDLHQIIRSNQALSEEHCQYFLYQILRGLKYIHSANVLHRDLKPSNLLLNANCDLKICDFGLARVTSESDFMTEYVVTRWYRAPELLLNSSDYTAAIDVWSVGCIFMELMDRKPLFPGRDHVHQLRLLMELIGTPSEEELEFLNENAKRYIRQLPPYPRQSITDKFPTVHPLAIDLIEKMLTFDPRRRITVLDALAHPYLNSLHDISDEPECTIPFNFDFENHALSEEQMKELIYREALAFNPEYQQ
row,Variant,effect of a mutation on the interaction
1,T220D,increasing interaction
2,T226E,increasing interaction

# Variants of: B3
# Conditions: with mpk10_arath MPK10, Q9M1Z5
# mpk10_arath MPK10, Q9M1Z5, sequence (Q9M1Z5 whole entry): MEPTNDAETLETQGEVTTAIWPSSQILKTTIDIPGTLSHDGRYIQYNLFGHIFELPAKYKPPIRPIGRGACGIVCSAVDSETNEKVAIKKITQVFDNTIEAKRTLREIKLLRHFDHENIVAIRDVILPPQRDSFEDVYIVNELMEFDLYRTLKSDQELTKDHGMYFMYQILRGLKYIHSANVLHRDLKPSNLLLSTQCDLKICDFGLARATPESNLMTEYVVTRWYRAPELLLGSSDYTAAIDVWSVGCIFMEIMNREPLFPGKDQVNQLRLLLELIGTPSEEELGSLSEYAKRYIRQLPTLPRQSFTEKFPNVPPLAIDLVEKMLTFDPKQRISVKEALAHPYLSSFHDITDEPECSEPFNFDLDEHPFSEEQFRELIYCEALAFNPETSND
row,Variant,effect of a mutation on the interaction
1,T220D,increasing interaction
2,T226E,increasing interaction

# Variants of: B3
# Conditions: with mpk13_arath MPK13, Q9LQQ9
# mpk13_arath MPK13, Q9LQQ9, sequence (Q9LQQ9 whole entry): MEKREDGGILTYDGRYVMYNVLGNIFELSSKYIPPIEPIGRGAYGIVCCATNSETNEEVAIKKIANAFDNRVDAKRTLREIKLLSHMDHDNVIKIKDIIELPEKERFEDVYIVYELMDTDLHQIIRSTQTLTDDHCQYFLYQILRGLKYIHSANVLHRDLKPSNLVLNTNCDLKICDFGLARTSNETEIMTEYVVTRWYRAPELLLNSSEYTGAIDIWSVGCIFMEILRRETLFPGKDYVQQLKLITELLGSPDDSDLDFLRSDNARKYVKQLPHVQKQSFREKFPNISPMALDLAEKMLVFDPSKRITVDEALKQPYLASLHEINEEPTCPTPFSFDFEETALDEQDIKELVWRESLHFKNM
row,Variant,effect of a mutation on the interaction
1,T220D,increasing interaction
2,T226E,increasing interaction

# Variants of: B4
# Conditions: with mpk4_arath MPK4, Q39024
row,Variant,effect of a mutation on the interaction
1,T220D,increasing interaction
2,T226E,increasing interaction

# Variants of: B5
# Conditions: with mpk11_arath MPK11, Q9LMM5
row,Variant,effect of a mutation on the interaction
1,T220D,increasing interaction
2,T226E,increasing interaction

# Variants of: B6
# Conditions: with mpk6_arath MPK6, Q39026
row,Variant,effect of a mutation on the interaction
1,S195E,increasing interaction
2,S201E,increasing interaction

# Variants of: B6
# Conditions: with mpk10_arath MPK10, Q9M1Z5
row,Variant,effect of a mutation on the interaction
1,S195E,increasing interaction
2,S201E,increasing interaction

# Variants of: B7
# Conditions: with mpk20_arath MPK20, Q9SJG9
row,Variant,effect of a mutation on the interaction
1,S195E,increasing interaction
2,S201E,increasing interaction
